Assay results from patent publication US20250011363A1, “OPTIMIZED SHORTENED PEPTIDE THAT BINDS TO ACETYLCHOLINE RECEPTOR, AND USE THEREOF” (SKINMED CO., LTD., priority 2021, published 2025).
One block for each binder: values may come before it.

Key:
acetylcholine receptor [1] = assay: SPR, peptide at 10 µM on acetylcholine receptor
acetylcholine receptor [2] = assay: SPR, AchR immobilized on CM5 chip, peptide at 10 µM

B1: 5mer-390 (peptide)
peptide: KRFCR
Binding affinity (RU) (acetylcholine receptor [1]): 64 RU

B3: 5mer-104 (peptide)
peptide: RVVLK
Binding affinity (RU) (acetylcholine receptor [2]): 74 RU

B4: 5mer-398 (peptide)
peptide: KGQCR
Binding affinity (RU) (acetylcholine receptor [1]): 71 RU

B7: 5mer-397 (peptide)
peptide: RRITK
Binding affinity (RU) (acetylcholine receptor [1]): 52 RU

B12: 5mer-385 (peptide)
peptide: RGVYR
Binding affinity (RU) (acetylcholine receptor [1]): 51 RU

B13: 5mer-83 (peptide)
peptide: KGFSR
Binding affinity (RU) (acetylcholine receptor [1]): 64 RU

B19: 5mer-399 (peptide)
peptide: KWIQR
Binding affinity (RU) (acetylcholine receptor [2]): 62 RU

B20: 5mer-396 (peptide)
peptide: KVVCR
Binding affinity (RU) (acetylcholine receptor [1]): 53 RU

B23: 5mer-369 (peptide)
peptide: RGFTR
Binding affinity (RU) (acetylcholine receptor [1]): 84 RU

B26: 5mer-88 (peptide)
peptide: RRVQK
Binding affinity (RU) (acetylcholine receptor [1]): 73 RU

B29: 5mer-368 (peptide)
peptide: KRIRR
Binding affinity (RU) (acetylcholine receptor [1]): 50 RU

B30: 5mer-388 (peptide)
peptide: KLFCK
Binding affinity (RU) (acetylcholine receptor [1]): 78 RU

B31: 5mer-71 (peptide)
peptide: KLQSK
Binding affinity (RU) (acetylcholine receptor [1]): 68 RU

B33: 5mer-69 (peptide)
peptide: RSRSR
Binding affinity (RU) (acetylcholine receptor [1]): 50 RU

B34: 5mer-80 (peptide)
peptide: KSRTR
Binding affinity (RU) (acetylcholine receptor [1]): 83 RU

B40: 5mer-86 (peptide)
peptide: RRLCK
Binding affinity (RU) (acetylcholine receptor [1]): 55 RU

B41: 5mer-82 (peptide)
peptide: RQRYK
Binding affinity (RU) (acetylcholine receptor [1]): 84 RU

B42: 5mer-74 (peptide)
peptide: RQITK
Binding affinity (RU) (acetylcholine receptor [1]): 87 RU

B43: 5mer-389 (peptide)
peptide: KWRRR
Binding affinity (RU) (acetylcholine receptor [1]): 57 RU

B45: 5mer-78 (peptide)
peptide: KVICK
Binding affinity (RU) (acetylcholine receptor [1]): 79 RU

B50: 5mer-96 (peptide)
peptide: RVLYR
Binding affinity (RU) (acetylcholine receptor [1]): 55 RU

B52: 5mer-402 (peptide)
peptide: RLRYR
Binding affinity (RU) (acetylcholine receptor [2]): 86 RU

B53: 5mer-87 (peptide)
peptide: RQITR
Binding affinity (RU) (acetylcholine receptor [1]): 55 RU

B55: 5mer-76 (peptide)
peptide: RGYRR
Binding affinity (RU) (acetylcholine receptor [1]): 80 RU

B57: 5mer-394 (peptide)
peptide: KRRRK
Binding affinity (RU) (acetylcholine receptor [1]): 66 RU

B58: 5mer-374 (peptide)
peptide: KLFTR
Binding affinity (RU) (acetylcholine receptor [1]): 75 RU

B59: 5mer-70 (peptide)
peptide: RLLQR
Binding affinity (RU) (acetylcholine receptor [1]): 69 RU

B60: 5mer-382 (peptide)
peptide: RLRQR
Binding affinity (RU) (acetylcholine receptor [1]): 62 RU

B61: 5mer-395 (peptide)
peptide: RWVCK
Binding affinity (RU) (acetylcholine receptor [1]): 50 RU

B62: 5mer-379 (peptide)
peptide: KSRLR
Binding affinity (RU) (acetylcholine receptor [1]): 79 RU

B63: 5mer-92 (peptide)
peptide: RVRLK
Binding affinity (RU) (acetylcholine receptor [1]): 62 RU

B66: 5mer-94 (peptide)
peptide: RWFQR
Binding affinity (RU) (acetylcholine receptor [1]): 50 RU

B67: 5mer-72 (peptide)
peptide: KLYRR
Binding affinity (RU) (acetylcholine receptor [1]): 50 RU

B68: 5mer-103 (peptide)
peptide: RWFLK
Binding affinity (RU) (acetylcholine receptor [2]): 62 RU

B69: 5mer-370 (peptide)
peptide: KWRRK
Binding affinity (RU) (acetylcholine receptor [1]): 67 RU

B72: 5mer-386 (peptide)
peptide: RSFLK
Binding affinity (RU) (acetylcholine receptor [1]): 78 RU

B73: 5mer-373 (peptide)
peptide: KVFTK
Binding affinity (RU) (acetylcholine receptor [1]): 87 RU

B74: 5mer-89 (peptide)
peptide: KRITK
Binding affinity (RU) (acetylcholine receptor [1]): 77 RU

B76: 5mer-84 (peptide)
peptide: RVVRR
Binding affinity (RU) (acetylcholine receptor [1]): 67 RU

Other lines, results leading:

Binding affinity (RU) (acetylcholine receptor [1]): 74 RU
B2: 5mer-85 (peptide)
peptide: KGVLK

Binding affinity (RU) (acetylcholine receptor [1]): 62 RU
B5: 5mer-364 (peptide)
peptide: RWITR

Binding affinity (RU) (acetylcholine receptor [2]): 64 RU
B6: 5mer-403 (peptide)
peptide: RRLYK

Binding affinity (RU) (acetylcholine receptor [1]): 52 RU
B8: 5mer-366 (peptide)
peptide: RQLQK

Binding affinity (RU) (acetylcholine receptor [1]): 71 RU
B9: 5mer-367 (peptide)
peptide: RSVQK

Binding affinity (RU) (acetylcholine receptor [1]): 74 RU
B10: 5mer-77 (peptide)
peptide: KWRQK

Binding affinity (RU) (acetylcholine receptor [1]): 87 RU
B11: 5mer-381 (peptide)
peptide: KGQRR

Binding affinity (RU) (acetylcholine receptor [2]): 80 RU
B14: 5mer-100 (peptide)
peptide: KVIRK

Binding affinity (RU) (acetylcholine receptor [1]): 86 RU
B15: 5mer-90 (peptide)
peptide: RWYTK

Binding affinity (RU) (acetylcholine receptor [1]): 84 RU
B16: 5mer-375 (peptide)
peptide: KQLCR

Binding affinity (RU) (acetylcholine receptor [1]): 52 RU
B17: 5mer-365 (peptide)
peptide: KRRYK

Binding affinity (RU) (acetylcholine receptor [1]): 52 RU
B18: 5mer-387 (peptide)
peptide: RRILR

Binding affinity (RU) (acetylcholine receptor [2]): 52 RU
B21: 5mer-401 (peptide)
peptide: RGVLR

Binding affinity (RU) (acetylcholine receptor [1]): 86 RU
B22: 5mer-371 (peptide)
peptide: RGISK

Binding affinity (RU) (acetylcholine receptor [1]): 63 RU
B24: 5mer-75 (peptide)
peptide: KVQTK

Binding affinity (RU) (acetylcholine receptor [1]): 82 RU
B25: 5mer-79 (peptide)
peptide: RWFLR

Binding affinity (RU) (acetylcholine receptor [1]): 79 RU
B27: 5mer-93 (peptide)
peptide: KWVYR

Binding affinity (RU) (acetylcholine receptor [1]): 75 RU
B28: 5mer-384 (peptide)
peptide: KSLRK

Binding affinity (RU) (acetylcholine receptor [1]): 54 RU
B32: 5mer-372 (peptide)
peptide: RSVCR

Binding affinity (RU) (acetylcholine receptor [1]): 80 RU
B35: 5mer-66 (peptide)
peptide: KRLLR

Binding affinity (RU) (acetylcholine receptor [1]): 55 RU
B36: 5mer-91 (peptide)
peptide: RQIQK

Binding affinity (RU) (acetylcholine receptor [1]): 56 RU
B37: 5mer-383 (peptide)
peptide: RWQRK

Binding affinity (RU) (acetylcholine receptor [1]): 67 RU
B38: 5mer-65 (peptide)
peptide: RQIRR

Binding affinity (RU) (acetylcholine receptor [1]): 68 RU
B39: 5mer-98 (peptide)
peptide: KWYCK

Binding affinity (RU) (acetylcholine receptor [1]): 79 RU
B44: 5mer-81 (peptide)
peptide: RGIYR

Binding affinity (RU) (acetylcholine receptor [1]): 52 RU
B46: 5mer-97 (peptide)
peptide: KRQLR

Binding affinity (RU) (acetylcholine receptor [1]): 65 RU
B47: 5mer-378 (peptide)
peptide: RRLSK

Binding affinity (RU) (acetylcholine receptor [1]): 72 RU
B48: 5mer-391 (peptide)
peptide: KVFRR

Binding affinity (RU) (acetylcholine receptor [1]): 68 RU
B49: 5mer-95 (peptide)
peptide: RGRRK

Binding affinity (RU) (acetylcholine receptor [2]): 55 RU
B51: 5mer-101 (peptide)
peptide: RQQYR

Binding affinity (RU) (acetylcholine receptor [1]): 65 RU
B54: 5mer-376 (peptide)
peptide: KGQLR

Binding affinity (RU) (acetylcholine receptor [1]): 86 RU
B56: 5mer-67 (peptide)
peptide: RQLYR

Binding affinity (RU) (acetylcholine receptor [1]): 75 RU
B64: 5mer-393 (peptide)
peptide: KSLQR

Binding affinity (RU) (acetylcholine receptor [1]): 87 RU
B65: 5mer-392 (peptide)
peptide: RSRLR

Binding affinity (RU) (acetylcholine receptor [2]): 82 RU
B70: 5mer-102 (peptide)
peptide: RGFSK

Binding affinity (RU) (acetylcholine receptor [1]): 82 RU
B71: 5mer-68 (peptide)
peptide: RGFYK

Binding affinity (RU) (acetylcholine receptor [2]): 58 RU
B75: 5mer-99 (peptide)
peptide: RWICK

Binding affinity (RU) (acetylcholine receptor [2]): 70 RU
B77: 5mer-400 (peptide)
peptide: RWRCK

Binding affinity (RU) (acetylcholine receptor [1]): 67 RU
B78: 5mer-377 (peptide)
peptide: KGFYK

Binding affinity (RU) (acetylcholine receptor [1]): 82 RU
B79: 5mer-380 (peptide)
peptide: KRYLK
